Test results: article PMC5457438
Substitutions are numbered along the chain they refer to.

Assays:
[1] = target: recombinant complete cytoplasmic portion of MaeK (MaeKC) (Lactobacillus casei); test: SEC; gel filtration chromatography of MaeKC (Superdex200 16/60); single peak
[2] = tested on: T1, MaeR full length (MaeRFL) (Lacticaseibacillus (Lactobacillus) casei BL23), ORF:6e0afda8; test: EMSA; settings: EMSA: 15 ul of 2.5 mM Tris-HCl pH 7.5, 100 mM NaCl, 25 mM MgCl2, 0.25 mM EDTA, 0.25 mM DTT, 10% glycerol, 1.5 ug salmon sperm DNA, 100 ng DNA, 62-375 ng …
T1 sequence: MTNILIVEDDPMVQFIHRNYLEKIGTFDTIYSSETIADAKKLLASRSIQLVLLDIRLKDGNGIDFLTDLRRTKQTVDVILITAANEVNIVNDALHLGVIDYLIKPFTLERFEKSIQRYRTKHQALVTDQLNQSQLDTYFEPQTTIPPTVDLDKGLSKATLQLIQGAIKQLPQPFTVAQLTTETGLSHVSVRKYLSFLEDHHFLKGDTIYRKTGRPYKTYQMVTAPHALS

[3] = tested on: T2, MaeR D54N D54N (Lacticaseibacillus (Lactobacillus) casei BL23), ORF:6e0afda8; test: EMSA; settings: EMSA: 15 ul of 2.5 mM Tris-HCl pH 7.5, 100 mM NaCl, 25 mM MgCl2, 0.25 mM EDTA, 0.25 mM DTT, 10% glycerol, 1.5 ug salmon sperm DNA, 100 ng DNA, 62-375 ng …
T2 sequence: T1 sequence with D54N

[4] = tested on: T3, MaeR D54A D54A (Lacticaseibacillus (Lactobacillus) casei BL23), ORF:6e0afda8; test: EMSA; settings: EMSA: 15 ul of 2.5 mM Tris-HCl pH 7.5, 100 mM NaCl, 25 mM MgCl2, 0.25 mM EDTA, 0.25 mM DTT, 10% glycerol, 1.5 ug salmon sperm DNA, 100 ng DNA, 62-375 ng …
T3 sequence: T1 sequence with D54A

stoichiometry N [1]	Substance	binding [2]	binding [3]	binding [4]
2	recombinant complete cytoplasmic portion of MaeK (MaeKC) (domain or fragment)	–	–	–
–	CGTTGATTTGTTGGGTGTAACCGTCTTGTTCTCCATGTTTCCTTACCCCCAATCTTTTGTTACTTACAGCATATTGTAAGCGCTTCATCAGGGGAAGATTATTTAACTTATTAAACCATAAACCCATTTATTTAAGCGATTGTTTTACTATTCACAAGATGGTTTCTCTACTGAACAGGAGTATGATCATGAAAATAAAAGGATGGCGGCTATGGGGCT (double strand) [mae promoter (maeP-maeK intergenic region, 219 bp)]	binds	binds	no binding
